The target of one data set is T1, p63 (Bos taurus, UniProt Q28175).
T1 construct: RPE-membrane proteins were then solubilized in phosphate-buffered saline; from tissue; host or cells: bovine retinal pigment epithelium (RPE) membrane fraction, CHAPS-solubilized, gel-filtered, 125I-labelled
T1 sequence (Q28175 2-533 limits assumed): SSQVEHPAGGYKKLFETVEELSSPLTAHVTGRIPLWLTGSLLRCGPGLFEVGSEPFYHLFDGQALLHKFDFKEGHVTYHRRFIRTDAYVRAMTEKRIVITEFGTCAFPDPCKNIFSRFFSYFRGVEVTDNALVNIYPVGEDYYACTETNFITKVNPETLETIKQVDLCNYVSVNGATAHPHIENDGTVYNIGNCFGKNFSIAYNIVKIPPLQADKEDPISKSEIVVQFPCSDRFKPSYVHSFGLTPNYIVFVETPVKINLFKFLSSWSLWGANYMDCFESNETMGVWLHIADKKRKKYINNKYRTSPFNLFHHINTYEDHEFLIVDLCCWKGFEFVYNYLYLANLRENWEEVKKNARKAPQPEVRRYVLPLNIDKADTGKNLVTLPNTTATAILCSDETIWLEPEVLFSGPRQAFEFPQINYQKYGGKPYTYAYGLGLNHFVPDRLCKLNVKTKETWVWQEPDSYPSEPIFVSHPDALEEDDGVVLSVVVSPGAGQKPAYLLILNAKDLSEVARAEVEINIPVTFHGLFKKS
The data set is described as follows: Immunoprecipitation of radiolabelled RPE-membrane proteins with mAb A52 / rabbit antisera to p63, SDS-PAGE. The following applies: solubilized bovine RPE membranes, immunoprecipitation with mAb A52 or rabbit antisera to p63. The class given is binding. The protocol: Bovine RPE-cells were isolated and membrane fractions were prepared as described in Bavik et al, J. Biol. Chem. 266:[…] (1991) incorporated by reference. RPE-membrane proteins were then solubilized in phosphate-buffered saline (PBS) (20 mM sodium phosphate, PH 7.2, containing 150 mM NaCl), containing 1% 3-[(3-cholamido-propyl) -dimethylammonio] -1-propane sulfonic acid (CHAPS) at 1 mg of total membrane protein/ml of buffer. Remaining material was removed by ultracentrifugation at 100,000×g for 1 hour. Next, 500 ul aliquots of the solubilized membranes were subjected to gel filtration on a Sepharose 6 column equilibrated in PBS containing 1% CHAPS. The column was operated at a flow rate of 0.2 ml/min and 500 ul fractions collected. Proteins eluted in fractions corresponding to globular proteins of Mr 150,000 to 400,000 were then radiolabelled with Na^125I using the well-known Chloramin T procedure. […]
Aliquots of the radiolabelled proteins were then diluted in PBS containing 1% CHAPS and 1% bovine serum albumin and subsequently subjected to immunoprecipitation using the mAb A52 to p63 (5 ug per incubation) or using two polyclonal rabbit antisera to p63 (3 ul of serum per incubation) See Bavik et al., J. Biol. Chem. 267:23035-23042 (1992). Non-specific immunoprecipitation was monitored in parallel incubations using an unrelated mAb and preimmune rabbit serum. […]

A short description of data set [1]: Retinol dehydrogenase activity of p32 in microsomal fractions of transfected COS-cells, HPLC. The class given is biochemical, bovine. The protocol: Specifically, the EcoRI—insert of pλ321 was cloned into the EcoR1-digested eucaryotic expression vector pSG5. See Green et al., Nucl. Acid Res. 16:39 (1988). COS-cells were maintained in Dulbecco's minimal essential medium supplemented with 10% fetal bovine serum, 2mM glutamine and antibiotics. The cells were seeded into 60 mm petri dishes (4×10^5 cells per dish) and transfected with 5 ug of plasmid per dish using DEAE dextran. Control cells were transfected with equal amounts of the parental vector alone. After treatment with 10% DMSO for 2 minutes, the cells were incubated for 72-96 hours, and then harvested by scraping the dishes with a rubber policeman, and the cells thereafter collected by low speed centrifugation. The collected cell pellets were next resuspended in hypotonic buffer (10 mM Tris-HCl, pH 7.5 containing 1mM phenyl-methylsufonyl fluoride), put on ice for 20 minutes, and then homogenized using a Dounce homogenator. Unbroken cells and debris were removed by centrifugation (3000×g)for 15 minutes. Microsomes were subsequently collected by ultra-centrifugation at 100,000×g for 1 hour; membrane pellets were stored at −80° C. until further analyzed.
Next, some of the enzymatic properties of p32 expressed in COS-cells were determined in a manner similar to that as described in the study of 11-cis-retinol dehydrogenase activity in microsomal fractions of RPE cells. See Saari et al., Anal. Biochem 213:[…] (1993).
In particular, enzymatic activity of p32 was assayed by incubating the microsomal fractions from the aforementioned transfected cells, and from control cells lacking p32, with varying combinations of the different stereo isomeric substrates, i.e., 11-cis-retinol or all-trans-retinol, in the presence of either cofactor NAD+ or NADP.
To assay for p32 activity in transfected cells, the final concentration of 11-cis-retinol and all-trans-retinol (obtained from Sigma Chemical Co.) in the incubations was reduced to 100 uM. Twenty ug of total membrane protein from COS-cells expressing p32 or from control cells were used in each incubation, and thereafter a 30 minute incubation at 37° C. in the presence or absence of NAD+ or NADP followed. Reaction mixtures were then extracted with n-hexane, and organic phases removed and dried under argon. The dried organic phases were then separately dissolved in ethanol and aliquots were analyzed on a normal phase silica HPLC column developed with n-hexane containing 4% dioxane at 1 ml per minute. See Saari et al. J. Biol. Chem. 257:13329-13333 (1982). Effluent was monitored at 330 nm. Under these conditions, 11-cis-retinaldehyde and 11-cis retinol eluted at 7 minutes and 22.5 minutes, respectively, and all-trans-retinaldehyde and all-trans retinol eluted at 8 minutes and 23 minutes, respectively.

The nature of data set [2]: Retinol dehydrogenase activity in membranes of baculovirus-infected Sf9 cells, reversed phase HPLC. The class given is biochemical, murine. The protocol:
In order to generate a protein from a eukaryotic system, a 1.2 kilobase EcoRI fragment of the SEQ ID NO: 35 plasmid described supra was subcloned into a baculovirus expression vector, using known methods. Then, the vector was used to transfect Spodoptera frugiperda (“Sf9”) cells, again using known methods. Recombinant baculoviruses were then amplified by several rounds of amplification, and were then used in fresh Sf9 cells. A parallel set of experiments were also carried out, but using recombinant virus containing an unrelated gene, whose expression product had no retinol dehydrogenase activity.
Expressed protein was then assessed for enzyme activity. In brief, membranes equivalent to 25 ug of total membrane protein from infected cells were incubated in phosphate buffered saline (PBS), containing 100 uM of 9-cis retinol, or all-trans retinol. Final volumes of incubated materials were 200 ul. Either cofactor NAD+ or cofactor NADP was also added, to a final concentration of 200 uM. The mixture was incubated for 20 minutes at 37° C., after which alkaline ethanol was added. The mixture was then extracted with 2.0 ml of n-hexane. The organic phase was then removed and dried under argon. Dried phases were dissolved in ethanol, and aliquots were analyzed by reversed phase HPLC, using a C18 column, and a mobile phase of acetonitrile/water (85:15 v/v). Elution was at 1.0 ml/min, with effluent being monitored at 350 nm.

The mark [3] stands for this setting: experiments not elaborated upon.

B1: p32: 32 kDa membrane associated bovine RPE protein that complexes with p63; stereo specific 11-cis-retinol dehydrogenase (SEQ ID NO: 10) (protein)
chain: MWLPLLLGVLLWAALWLLRDRQCLPASDAFIFITGCDSGFGRLLALRLDQRGFRVLASCLTPSGAEDLQRVASSRLHTTLLDVTDPQSIRQAVKWVETHVGEAGLFGLVNNAGVAGIIGPTPWQTREDFQRVLNVNTLGPIGVTLALLPLLLQARGRVINITSVLGRLAANGGGYCVSKFGLEAFSDSLRRDVAPFGVRVSIVEPGFFRTPVTNLETLEDTLQACWARLPPATQALYGEAFLTKYLRVQQRIMNMICDPDLAKVSRCLEHALTARHPRTRYSPGWDAKLLWLPASYLPARLVDAVLAWVLPKPAQTVY
Turning to B1, the “coprecipitation with p63 (binding to p63)” value with p63 is listed as “coprecipitated”. Besides, in data set [1] (100 uM 11-cis-retinol, cofactor NAD+, 30 minute at 37° C.), the “11-cis-retinol dehydrogenase activity (formation of 11-cis-retinaldehyde)” value is reported as “active”. For the same molecule, the “formation of all-trans retinaldehyde from all-trans retinol” value in data set [1] (100 uM all-trans-retinol, 30 minute at 37° C.) is “no significant formation of all-trans retinaldehyde”. Further, the 11-cis-retinol dehydrogenase activity entry in data set [1] (cofactor NADP) is given as “not enzymatically-active”. In addition, in data set [1] (further experiments, no details), the “9-cis retinol dehydrogenase activity” value was “has 9-cis retinol dehydrogenase activity”.

B2: protein encoded by SEQ ID NO: 35: murine liver membrane associated protein of about 34 kilodaltons with 9-cis, 11-cis and 13-cis retinol dehydrogenase activity (protein)
chain: MWLPLLLGALLWAVLWLLRDRQSLPASDAFIFITGCDSGFGRLLALQLDQKGFQVLAGCLTPSGAEDLQQMASSRLHTTLLDITDPQNVQQVAKWVKTRVGETGLFGLVNNAGVAGIIGPTPWLTQDDFQRVLSVNTLGPIGVTLALLPLLQQARGRVVNITSVLGRIAANGGGYCVSKFGLEAFSDSLRRDMAPFGVQVSIVEPGFFRTPVTNLESLESTLKACWARLPPAIQAHYGEAFLDTYLRVQRRIMNLICDPELTKVTSCLEHALTARHPRTRYSPGWDAKLLWLPASYLPARVVDAVLTWILPRPAQSVS
As for B2, the “oxidation of 9-cis retinol, efficiency relative to mock infected cells” value in data set [2] (100 uM 9-cis retinol, 20 minutes at 37° C.) is 8-10 times. Moreover, in data set [2] (100 uM 9-cis retinol, cofactor NADP 200 uM), the 9-cis retinaldehyde formation result is recorded as “Background levels”. Also, in data set [2] (setting [3]), the “11-cis RDH activity” value is on record as “observed” and the “13-cis RDH activity” value is 13-cis RDH activity.
